# Test results as given in article PMC9633789 (Nature Communications, 2022).
# B1: His-p97 (recombinant Xenopus p97) (enzyme, UniProt P23787 1-805, looked up)
# chain: MASGSDTKSDDLSTAILKQKSRPNRLIVDESINEDNSMVSLSQAKMDELQLFRGDTVLLKGKKRREAVCIVLSDDTCSDEKIRMNRVVRNNLRVRLGDVISIQPCPDVKYGKRVHVLPIDDTVEGITGNLFEVYLKPYFLEAYRPIRKGDIFLVRGGMRAVEFKVVETDPSPYCIVAPDTVIHCEGEPIKREDEEESLNEVGYDDIGGCRKQLAQIKEMVELPLRHPALFKAIGVKPPRGILLYGPPGTGKTLIARAVANETGAFFFLINGPEIMSKLAGESESNLRKAFEEAEKNAPAIIFIDELDAIAPKREKTHGEVERRIVSQLLTLMDGLKQRAHVIVMAATNRPNSIDPALRRFGRFDREVDIGIPDSTGRLEILQIHTKNMKLSDDVDLEQVANETHGHVGADLAALCSEAALQAIRKKMDLIDLEDETIDAEVMNSLAVTMDDFRWALSQSNPSALRETVVEVPQVTWEDIGGLEDVKRELQELVQYPVEHPDKFLKFGMTPSKGVLFYGPPGCGKTLLAKAIANECQANFISIKGPELLTMWFGESEANVREIFDKARQAAPCVLFFDELDSIAKARGGNIGDGGGAADRVINQILTEMDGMSIKKNVFIIGATNRPDIIDPAILRPGRLDQLIYIPLPDEKSRMAILKANLRKSPVAKDVDVDFLAKMTNGFSGADLTEICQRACKLAIRESIENEIRRERDRQTNPSAMEVEEDDPVPEIRRDHFEEAMRFARRSVSDNDIRKYEMFAQTLQQSRGFGSFRFPAGGQSGAGPSPGAGGGSGGGHFTEEDDDLYG
# notes: p97, Xenopus; source: E. coli Rosetta 2 (DE3), purified (HisTrap HP, Superose 6 Increase)
# Target: the molecule itself
# Assay: SEC; Superose 6 Increase 10/300 GL; 25 mM HEPES-KOH pH 8.0, 100 mM NaCl, 5 mM MgCl2, 1 mM DTT, 10% sucrose; step of the purification of His-p97
protein,measurement,value
B1,stoichiometry N,6
